In patent US20140323392A1 (UNIVERSITY OF UTAH RESEARCH FOUNDATION, published 2014):
Bridges are numbered along the chain shown (N, C = ends). [ ]: non-standard residue; d: D form.

Experiments:
Experiment in all cases: cell-based or functional assay
[1] = target: HIV-1 isolate 93IN101 gp41 (envelope subtype C) (HIV-1 isolate 93IN101)
[2] = target: HIV-1 isolate 92UG046 gp41 (envelope subtype D) (HIV-1 isolate 92UG046)
[3] = target: HIV-1 isolate IIIB gp41 (envelope subtype B) (HIV-1 isolate IIIB)
[4] = target: HIV-1 isolate G3 gp41 (envelope subtype G) (HIV-1 isolate G3)
[5] = target: HIV-1 isolate Ba-L gp41 (envelope subtype B) (HIV-1 isolate Ba-L)
[6] = target: HIV-1 isolate 93BR029 gp41 (envelope subtype F) (HIV-1 isolate 93BR029)
[7] = target: HIV-1 isolate CMU02 gp41 (envelope subtype AE) (HIV-1 isolate CMU02)
[8] = target: HIV-1 isolate CMU06 gp41 (envelope subtype E) (HIV-1 isolate CMU06)
[9] = target: HIV-1 isolate 92BR025 gp41 (envelope subtype C) (HIV-1 isolate 92BR025)
[10] = target: HIV-1 isolate 93BR020 gp41 (envelope subtype F) (HIV-1 isolate 93BR020)
[11] = target: HIV-1 isolate 92UG001 gp41 (envelope subtype D) (HIV-1 isolate 92UG001)
[12] = target: HIV-1 isolate 92UG029 gp41 (envelope subtype A) (HIV-1 isolate 92UG029)
[13] = target: HIV-1 isolate 93TH073 gp41 (envelope subtype E) (HIV-1 isolate 93TH073)
[14] = target: HIV-1 isolate RU570 gp41 (envelope subtype G) (HIV-1 isolate RU570)
[15] = target: HIV-1 isolate 93BR019 gp41 (envelope subtype BF) (HIV-1 isolate 93BR019)
[16] = target: HIV-1 isolate JR-CSF gp41 (envelope subtype B) (HIV-1 isolate JR-CSF)
[17] = target: T1, HIV-1 JRFL envelope glycoprotein gp41 (N-trimer of the prehairpin intermediate) (HIV-1 strain JRFL)
[18] = target: HIV-1 isolate 92UG037 gp41 (envelope subtype A) (HIV-1 isolate 92UG037)
[19] = target: HIV-1 HXB2 envelope glycoprotein gp41 with resistance mutation Q577R (HIV-1 strain HXB2, UniProt P04578 33-856)
[20] = target: T2, HIV-1 HXB2 envelope glycoprotein gp41 (N-trimer of the prehairpin intermediate) (HIV-1 strain HXB2, UniProt P04578 512-856)
[21] = target: HIV-1 HXB2 envelope glycoprotein gp41 with resistance mutations E560K/V570I (HIV-1 strain HXB2, UniProt P04578 33-856)
[22] = target: T2, HIV-1 HXB2 envelope glycoprotein gp41 …; remark: listed apart in the source
[23] = target: T1, HIV-1 JRFL envelope glycoprotein gp41 …; remark: listed apart in the source

With Ac-[dH][dP][dC][dD][dY][dP][dE][dW][dQ][dW][dL][dC][dE][dL]G[dK]-NH2 (disulfide 3-12 (inferred); also: trimer, crosslinking not given here) [PIE12 trimer (Table 3)] the “IC50, replication competent virus on PBMC target cells” value (from here on “IC50, replication competent virus”) [1] was 0.38 nM, the “IC50, replication competent virus” value [2] was 1.2 nM and the “IC50, replication competent virus” value [3] was 0.78 nM. For the same binder, the “IC50, replication competent virus” value [4] was 1.21 nM, the “IC50, replication competent virus” value [5] was 0.27 nM and the “IC50, replication competent virus” value [6] was 0.79 nM. The “IC50, replication competent virus” value [7] was 0.35 nM, the “IC50, replication competent virus” value [8] was 0.38 nM and the “IC50, replication competent virus” value [9] was 5.19 nM. For the same binder, the “IC50, replication competent virus” value [10] was 0.37 nM, the “IC50, replication competent virus” value [11] was 4.45 nM and the “IC50, replication competent virus” value [12] was 0.69 nM. For the same binder, the “IC50, replication competent virus” value [13] was 0.84 nM, the “IC50, replication competent virus” value [14] was 0.36 nM and the “IC50, replication competent virus” value [15] was 4.72 nM. The “IC50, replication competent virus” value [16] was 0.08 nM, the “IC50, replication competent virus” value [17] was 0.26 nM and the “IC50, replication competent virus” value [18] was 0.21 nM.

B1: PEG4-PIE12-trimer (peptide)
peptide: Ac-[dH][dP][dC][dD][dY][dP][dE][dW][dQ][dW][dL][dC][dE][dL]GK-NH2
modifications: disulfide 3-12 (inferred); not fully specified (residue 16); also: homotrimer on trimethylolethane-triNHS ester scaffold
With B1 the “IC50, antiviral potency, Q577R (HXB2 background)” value [19] was over 3000 nM, the “IC50, antiviral potency, WT HXB2” value [20] was 0.72 nM and the “IC50, antiviral potency, E560K/V570I (HXB2 background)” value [21] was 0.89 nM. The “IC50, HXB2 pseudovirion entry” value [22] was 0.72 nM and the “IC50, JRFL pseudovirion entry” value [23] was 2.1 nM.
